The values that follow come from IntAct's records for PubMed 27725184.

The labels stand for the following.
B1: STAM-binding protein (Homo sapiens), O95630 (parent)
chain: MSDHGDVSLPPEDRVRALSQLGSAVEVNEDIPPRRYFRSGVEIIRMASIYSEEGNIEHAFILYNKYITLFIEKLPKHRDYKSAVIPEKKDTVKKLKEIAFPKAEELKAELLKRYTKEYTEYNEEKKKEAEELARNMAIQQELEKEKQRVAQQKQQQLEQEQFHAFEEMIRNQELEKERLKIVQEFGKVDPGLGGPLVPDLEKPSLDVFPTLTVSSIQPSDCHTTVRPAKPPVVDRSLKPGALSNSESIPTIDGLRHVVVPGRLCPQFLQLASANTARGVETCGILCGKLMRNEFTITHVLIPKQSAGSDYCNTENEEELFLIQDQQGLITLGWIHTHPTQTAFLSSVDLHTHCSYQMMLPESVAIVCSPKFQETGFFKLTDHGLEEISSCRQKGFHPHSKDPPLFCSCSHVTVVDRAVTITDLR

Variants of B1 are the subject of this assay. To be noted: with stam2_human STAM2, O75886.
In the case of MSDHGDVSLPPEDRVRALSQLGSAVEVNEDIPPRRYFRSGVEIIRMASIYSEEGNIEHAFILYNKYITLFIEKLPKHRDYKSAVIPEKKDTVKKLKEIAFPKAEELKAELLKRYTKEYTEYNEEKKKEAEELARNMAIQQELEKEKQRVAQQKQQQLEQEQFHAFEEMIRNQELEKERLKIVQEFGKVDPGLGGPLVPDLEKPSLDVFPTLTVSSIQPSDCHTTVRPAKPPVVDRSLTPGALSNSESIPTIDGLRHVVVPGRLCPQFLQLASANTARGVETCGILCGKLMRNEFTITHVLIPKQSAGSDYCNTENEEELFLIQDQQGLITLGWIHTHPTQTAFLSSVDLHTHCSYQMMLPESVAIVCSPKFQETGFFKLTDHGLEEISSCRQKGFHPHSKDPPLFCSCSHVTVVDRAVTITDLR [K238T], the “effect of a mutation on the interaction” value is listed as “decreasing interaction”. To MSDHGDVSLPPEDRVRALSQLGSAVEVNEDIPPRRYFRSGVEIIRMASIYSEEGNIEHAFILYNKYITLFIEKLPKHRDYKSAVIPEKKDTVKKLKEIAFPKAEELKAELLKRYTKEYTEYNEEKKKEAEELARNMAIQQELEKEKQRVAQQKQQQLEQEQFHAFEEMIRNQELEKERLKIVQEFGKVDPGLGGPLVPDLEKPSLDVFPTLTVSSIQPSDCHTTVRPAHPPVVDRSLKPGALSNSESIPTIDGLRHVVVPGRLCPQFLQLASANTARGVETCGILCGKLMRNEFTITHVLIPKQSAGSDYCNTENEEELFLIQDQQGLITLGWIHTHPTQTAFLSSVDLHTHCSYQMMLPESVAIVCSPKFQETGFFKLTDHGLEEISSCRQKGFHPHSKDPPLFCSCSHVTVVDRAVTITDLR [K229H] belongs “with no effect”.
